How the values were obtained:
[1] = system: HeLa Kyoto; test: melting temperature (median over replicates), in situ; higher = more thermally stable
[2] = system: HeLa Kyoto; test: solubility change mitosis vs G1/S (difference of NP-40 vs SDS log2 ratios) (log2 ratio difference); higher = more soluble in mitosis
[3] = system: HeLa Kyoto; test: thermal stability score vs G1/S (z-score of summed log2 fold changes over temperatures); higher = more thermally stable than in G1/S
[4] = system: HeLa Kyoto; test: solubility in G1/S (NP-40 vs SDS abundance) (log2 ratio); higher = more soluble; conditions: cell cycle stage: G1/S
[5] = cell cycle stage: early G1 (4.5 h after nocodazole release)
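For melting temperature (median over replicates), in situ in this document: HeLa Kyoto cells synchronized by double thymidine or nocodazole block, proteins quantified by TMT10plex mass spectrometry, three independent biological replicates.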
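For solubility change mitosis vs G1/S (difference of NP-40 vs SDS log2 ratios) in this document: synchronized HeLa Kyoto cells (double thymidine block for G1/S, nocodazole release for mitosis), protein amounts in NP-40 versus SDS lysates quantified by mass spectrometry, three biological replicates.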
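For solubility in G1/S (NP-40 vs SDS abundance) in this document: HeLa Kyoto cells arrested at G1/S by double thymidine block, proteins quantified by TMT10plex mass spectrometry in mild NP-40 versus SDS extracts, three biological replicates.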
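For thermal stability score vs G1/S (z-score of summed log2 fold changes over temperatures) in this document: synchronized HeLa Kyoto cells, proteins quantified by TMT10plex mass spectrometry, three biological replicates, mitosis taken 0.5 h after nocodazole release, G1/S directly after double thymidine block.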

Row | Substance | melting temperature ([1]; cell cycle stage: G1/S) [°C] | melting temperature ([1]; cell cycle stage: mitosis) [°C] | solubility change mitosis (log2) [2] | thermal stability score [3, 5] | thermal stability score ([3]; cell cycle stage: mitosis) | solubility in G1/S (log2) [4]
1 | CTSZ | 56.1 | 55 | -0.0457 | -1.5 | -2.8 | 0.192
2 | MAKPSHSSYVLQQLNNQREWGFLCDCCIAIDDIYFQAHKAVLAACSSYFRMFFMNHQHSTAQLNLSNMKISAECFDLILQFMYLGKIMTAPSSFEQFKVAMNYLQLYNVPDCLEDIQDADCSSSKCSSSASSKQNSKMIFGVRMYEDTVARNGNEANRWCAEPSSTVNTPHNREADEESLQLGNFPEPLFDVCKKSSVSKLSTPKERVSRRFGRSFTCDSCGFGFSCEKLLDEHVLTCTNRHLYQNTRSYHRIVDIRDGKDSNIKAEFGEKDSSKTFSAQTDKYRGDTSQAADDSASTTGSRKSSTVESEIASEEKSRAAERKRIIIKMEPEDIPTDELKDFNIIKVTDKDCNESTDNDELEDEPEEPFYRYYVEEDVSIKKSGRKTLKPRMSVSADERGGLENMRPPNNSSPVQEDAENASCELCGLTITEEDLSSHYLAKHIENICACGKCGQILVKGRQLQEHAQRCGEPQDLTMNGLGNTEEKMDLEENPDEQSEIRDMFVEMLDDFRDNHYQINSIQKKQLFKHSACPFRCPNCGQRFETENLVVEHMSSCLDQDMFKSAIMEENERDHRRKHFCNLCGKGFYQRCHLREHYTVHTKEKQFVCQTCGKQFLRERQLRLHNDMHKGMARYVCSICDQGNFRKHDHVRHMISHLSAGETICQVCFQIFPNNEQLEQHMDVHLYTCGICGAKFNLRKDMRSHYNAKHLKRT [ZBTB1] | – | 51 | -0.0122 | 2 | 3.65 | -0.369
3 | MEIIRSNFKSNLHKVYQAIEEADFFAIDGEFSGISDGPSVSALTNGFDTPEERYQKLKKHSMDFLLFQFGLCTFKYDYTDSKYITKSFNFYVFPKPFNRSSPDVKFVCQSSSIDFLASQGFDFNKVFRNGIPYLNQEEERQLREQYDEKRSQANGAGALSYVSPNTSKCPVTIPEDQKKFIDQVVEKIEDLLQSEENKNLDLEPCTGFQRKLIYQTLSWKYPKGIHVETLETEKKERYIVISKVDEEERKRREQQKHAKEQEELNDAVGFSRVIHAIANSGKLVIGHNMLLDVMHTVHQFYCPLPADLSEFKEMTTCVFPRLLDTKLMASTQPFKDIINNTSLAELEKRLKETPFNPPKVESAEGFPSYDTASEQLHEAGYDAYITGLCFISMANYLGSFLSPPKIHVSARSKLIEPFFNKLFLMRVMDIPYLNLEGPDLQPKRDHVLHVTFPKEWKTSDLYQLFSAFGNIQISWIDDTSAFVSLSQPEQVKIAVNTSKYAESYRIQTYAEYMGRKQEEKQIKRKWTEDSWKEADSKRLNPQCIPYTLQNHYYRNNSFTAPSTVGKRNLSPSQEEAGLEDGVSGEISDTELEQTDSCAEPLSEGRKKAKKLKRMKKELSPAGSISKNSPATLFEVPDTW [PARN] | 48.7 | 50.7 | -0.0471 | 1.32 | 2.89 | -0.144
4 | MAPPSTREPRVLSATSATKSDGEMVLPGFPDADSFVKFALGSVVAVTKASGGLPQFGDEYDFYRSFPGFQAFCETQGDRLLQCMSRVMQYHGCRSNIKDRSKVTELEDKFDLLVDANDVILERVGILLDEASGVNKNQQPVLPAGLQVPKTVVSSWNRKAAEYGKKAKSETFRLLHAKNIIRPQLKFREKIDNSNTPFLPKIFIKPNAQKPLPQALSKERRERPQDRPEDLDVPPALADFIHQQRTQQVEQDMFAHPYQYELNHFTPADAVLQKPQPQLYRPIEETPCHFISSLDELVELNEKLLNCQEFAVDLEHHSYRSFLGLTCLMQISTRTEDFIIDTLELRSDMYILNESLTDPAIVKVFHGADSDIEWLQKDFGLYVVNMFDTHQAARLLNLGRHSLDHLLKLYCNVDSNKQYQLADWRIRPLPEEMLSYARDDTHYLLYIYDKMRLEMWERGNGQPVQLQVVWQRSRDICLKKFIKPIFTDESYLELYRKQKKHLNTQQLTAFQLLFAWRDKTARREDESYGYVLPNHMMLKIAEELPKEPQGIIACCNPVPPLVRQQINEMHLLIQQAREMPLLKSEVAAGVKKSGPLPSAERLENVLFGPHDCSHAPPDGYPIIPTSGSVPVQKQASLFPDEKEDNLLGTTCLIATAVITLFNEPSAEDSKKGPLTVAQKKAQNIMESFENPFRMFLPSLGHRAPVSQAAKFDPSTKIYEISNRWKLAQVQVQKDSKEAVKKKAAEQTAAREQAKEACKAAAEQAISVRQQVVLENAAKKRERATSDPRTTEQKQEKKRLKISKKPKDPEPPEKEFTPYDYSQSDFKAFAGNSKSKVSSQFDPNKQTPSGKKCIAAKKIKQSVGNKSMSFPTGKSDRGFRYNWPQR [EXOSC10] | 46.6 | 48.7 | 0.289 | 4.13 | 7.46 | -0.517
5 | MSLLLLLLLVSYYVGTLGTHTEIKRVAEEKVTLPCHHQLGLPEKDTLDIEWLLTDNEGNQKVVITYSSRHVYNNLTEEQKGRVAFASNFLAGDASLQIEPLKPSDEGRYTCKVKNSGRYVWSHVILKVLVRPSKPKCELEGELTEGSDLTLQCESSSGTEPIVYYWQRIREKEGEDERLPPKSRIDYNHPGRVLLQNLTMSYSGLYQCTAGNEAGKESCVVRVTVQYVQSIGMVAGAVTGIVAGALLIFLLVWLLIRRKDKERYEEEERPNEIREDAEAPKARLVKPSSSSSGSRSSRSGSSSTRSTANSASRSQRTLSTDAAPQPGLATQAYSLVGPEVRGSEPKKVHHANLTKAETTPSMIPSQSRAFQTV [CLMP] | 55 | 55.4 | -0.0674 | -1.13 | -0.751 | 0.0444
6 | MRKGVLKDPEIADLFYKDDPEELFIGLHEIGHGSFGAVYFATNAHTSEVVAIKKMSYSGKQTHEKWQDILKEVKFLRQLKHPNTIEYKGCYLKEHTAWLVMEYCLGSASDLLEVHKKPLQEVEIAAITHGALHGLAYLHSHALIHRDIKAGNILLTEPGQVKLADFGSASMASPANSFVGTPYWMAPEVILAMDEGQYDGKVDIWSLGITCIELAERKPPLFNMNAMSALYHIAQNDSPTLQSNEWTDSFRRFVDYCLQKIPQERPTSAELLRHDFVRRDRPLRVLIDLIQRTKDAVRELDNLQYRKMKKILFQETRNGPLNESQEDEEDSEHGTSLNREMDSLGSNHSIPSMSVSTGSQSSSVNSMQEVMDESSSELVMMHDDESTINSSSSVVHKKDHVFIRDEAGHGDPRPEPRPTQSVQSQALHYRNRERFATIKSASLVTRQIHEHEQENELREQMSGYKRMRRQHQKQLIALENKLKAEMDEHRLKLQKEVETHANNSSIELEKLAKKQVAIIEKEAKVAAADEKKFQQQILAQQKKDLTTFLESQKKQYKICKEKIKEEMNEDHSTPKKEKQERISKHKENLQHTQAEEEAHLLTQQRLYYDKNCRFFKRKIMIKRHEVEQQNIREELNKKRTQKEMEHAMLIRHDESTRELEYRQLHTLQKLRMDLIRLQHQTELENQLEYNKRRERELHRKHVMELRQQPKNLKAMEMQIKKQFQDTCKVQTKQYKALKNHQLEVTPKNEHKTILKTLKDEQTRKLAILAEQYEQSINEMMASQALRLDEAQEAECQALRLQLQQEMELLNAYQSKIKMQTEAQHERELQKLEQRVSLRRAHLEQKIEEELAALQKERSERIKNLLERQEREIETFDMESLRMGFGNLVTLDFPKEDYR [TAOK3] | 50.9 | 50.5 | -0.0814 | -0.159 | -0.329 | -0.118
7 | MKFLLDILLLLPLLIVCSLESFVKLFIPKRRKSVTGEIVLITGAGHGIGRLTAYEFAKLKSKLVLWDINKHGLEETAAKCKGLGAKVHTFVVDCSNREDIYSSAKKVKAEIGDVSILVNNAGVVYTSDLFATQDPQIEKTFEVNVLAHFWTTKAFLPAMTKNNHGHIVTVASAAGHVSVPFLLAYCSSKFAAVGFHKTLTDELAALQITGVKTTCLCPNFVNTGFIKNPSTSLGPTLEPEEVVNRLMHGILTEQKMIFIPSSIAFLTTLERILPERFLAVLKRKISVKFDAVIGYKMKAQ [HSD17B11] | 55.1 | 54.8 | -0.138 | 0.073 | -3.33 | -0.334
8 | MAGLPRRIIKETQRLLAEPVPGIKAEPDESNARYFHVVIAGPQDSPFEGGTFKLELFLPEEYPMAAPKVRFMTKIYHPNVDKLGRICLDILKDKWSPALQIRTVLLSIQALLSAPNPDDPLANDVAEQWKTNEAQAIETARAWTRLYAMNNI [UBE2N] | 52.1 | 52.1 | 0.111 | -0.982 | -0.49 | 0.641
9 | MQQDGLGVGTRNGSGKGRSVHPSWPWCAPRPLRYFGRDARARRAQTAAMALLAGGLSRGLGSHPAAAGRDAVVFVWLLLSTWCTAPARAIQVTVSNPYHVVILFQPVTLPCTYQMTSTPTQPIVIWKYKSFCRDRIADAFSPASVDNQLNAQLAAGNPGYNPYVECQDSVRTVRVVATKQGNAVTLGDYYQGRRITITGNADLTFDQTAWGDSGVYYCSVVSAQDLQGNNEAYAELIVLGRTSGVAELLPGFQAGPIEDWLFVVVVCLAAFLIFLLLGICWCQCCPHTCCCYVRCPCCPDKCCCPEALYAAGKAATSGVPSIYAPSTYAHLSPAKTPPPPAMIPMGPAYNGYPGGYPGDVDRSSSAGGQGSYVPLLRDTDSSVASEVRSGYRIQASQQDDSMRVLYYMEKELANFDPSRPGPPSGRVERAMSEVTSLHEDDWRSRPSRGPALTPIRDEEWGGHSPRSPRGWDQEPAREQAGGGWRARRPRARSVDALDDLTPPSTAESGSRSPTSNGGRSRAYMPPRSRSRDDLYDQDDSRDFPRSRDPHYDDFRSRERPPADPRSHHHRTRDPRDNGSRSGDLPYDGRLLEEAVRKKGSEERRRPHKEEEEEAYYPPAPPPYSETDSQASRERRLKKNLALSRESLVV | 53.8 | 54.6 | 0.133 | -3.76 | -1.62 | -0.186
10 | MSTLYVSPHPDAFPSLRALIAARYGEAGEGPGWGGAHPRICLQPPPTSRTPFPPPRLPALEQGPGGLWVWGATAVAQLLWPAGLGGPGGSRAAVLVQQWVSYADTELIPAACGATLPALGLRSSAQDPQAVLGALGRALSPLEEWLRLHTYLAGEAPTLADLAAVTALLLPFRYVLDPPARRIWNNVTRWFVTCVRQPEFRAVLGEVVLYSGARPLSHQPGPEAPALPKTAAQLKKEAKKREKLEKFQQKQKIQQQQPPPGEKKPKPEKREKRDPGVITYDLPTPPGEKKDVSGPMPDSYSPRYVEAAWYPWWEQQGFFKPEYGRPNVSAANPRGVFMMCIPPPNVTGSLHLGHALTNAIQDSLTRWHRMRGETTLWNPGCDHAGIATQVVVEKKLWREQGLSRHQLGREAFLQEVWKWKEEKGDRIYHQLKKLGSSLDWDRACFTMDPKLSAAVTEAFVRLHEEGIIYRSTRLVNWSCTLNSAISDIEVDKKELTGRTLLSVPGYKEKVEFGVLVSFAYKVQGSDSDEEVVVATTRIETMLGDVAVAVHPKDTRYQHLKGKNVIHPFLSRSLPIVFDEFVDMDFGTGAVKITPAHDQNDYEVGQRHGLEAISIMDSRGALINVPPPFLGLPRFEARKAVLVALKERGLFRGIEDNPMVVPLCNRSKDVVEPLLRPQWYVRCGEMAQAASAAVTRGDLRILPEAHQRTWHAWMDNIREWCISRQLWWGHRIPAYFVTVSDPAVPPGEDPDGRYWVSGRNEAEAREKAAKEFGVSPDKISLQQDEDVLDTWFSSGLFPLSILGWPNQSEDLSVFYPGTLLETGHDILFFWVARMVMLGLKLTGRLPFREVYLHAIVRDAHGRKMSKSLGNVIDPLDVIYGISLQGLHNQLLNSNLDPSEVEKAKEGQKADFPAGIPECGTDALRFGLCAYMSQGRDINLDVNRILGYRHFCNKLWNATKFALRGLGKGFVPSPTSQPGGHESLVDRWIRSRLTEAVRLSNQGFQAYDFPAVTTAQYSFWLYELCDVYLECLKPVLNGVDQVAAECARQTLYTCLDVGLRLLSPFMPFVTEELFQRLPRRMPQAPPSLCVTPYPEPSECSWKDPEAEAALELALSITRAVRSLRADYNLTRIRPDCFLEVADEATGALASAVSGYVQALASAGVVAVLALGAPAPQGCAVALASDRCSIHLQLQGLVDPARELGKLQAKRVEAQRQAQRLRERRAASGYPVKVPLEVQEADEAKLQQTEAELRKVDEAIALFQKML [VARS] | 51 | 50.5 | -0.183 | -0.359 | -0.482 | -0.0962
11 | HUWE1 | 52 | 51.4 | -0.136 | 0.946 | 0.312 | -0.226

Source: the supplement of paper PMC5998384
